The values that follow come from patent US20160208226A1, “Transaminase Biocatalysts” (COMMONWEALTH SCIENTIFIC AND INDUSTRIAL RESEARCH ORGANISATION, priority 2013, published 2016).

Test [1] is described as follows: Large-scale (200 mL) p6 reaction analysed by GC-MS. Format: biochemical. The note with it: C11 amino acid substrate, after seven days, oil analysed by GC-MS. How it is done: To corroborate the findings of the UV assay, a large-scale (200 mL) p6 reaction was carried out using C11 amino acid substrate. After seven days, the mixed reaction was allowed to settle and yellow oil was observed on the surface of the reaction. This oil was concentrated in vacuo and analysed by GC-MS. […] The diacid is thought to be the oxidation product of the semialdehyde formed by the transaminase, further supporting the findings of the UV assay.

Test [2] can be described thus: Coupled dehydrogenase assays for transaminase activity of the Pseudomonas sp. proteins and ancestral reconstructions. Format: biochemical. Here is the method: Activity for each protein was assessed using coupled dehydrogenase assays as described previously. A typical assay comprised:
Substrate (6.25 mM final concentration in potassium phosphate buffer)
Co-substrate (pyruvate (0.5 mM final concentration) or α-KG (0.25 mM final concentration)
NAD (1.25 mM final concentration)
Dehydrogenase (1 μL from ADH-≧35 units/mL stock solution or GDH≧35 units/mg protein stock)
Transaminase (final concentration dependent)
Potassium phosphate buffer (100 mM)
UV absorbance at 340 nm was recorded at 28° C. over a pH range of 7.5-10 with a range of substrates.
Proteins encoded by p7N6, p7N15, p7N16, p7N17, p7N43 and p7N48 were expressed using an E. coli recombinant expression platform and subsequently purified.
Each of the proteins were assayed for substrate specificity. Substrates identified by assaying for each of the proteins are summarized below.

B1: p6: pyruvate: ω-amino acid transaminase from a newly isolated Pseudomonas sp., amino acid sequence SEQ ID NO:1 (protein, listed as Pseudomonas sp.)
chain: MGSSHHHHHHSSGLVPRGSHMNQQVNVAPSAAADLNLKAHWMPFSANRNFHKDPRIIVAAEGSWLVDDKGRRIYDSLSGLWTCGAGHSRKEIADAVAKQIGTLDYSPGFQYGHPLSFQLAEKIAQMTPGTLDHVFFTGSGSECADTSIKMARAYWRIKGQAQKTKLIGRARGYHGVNVAGTSLGGIGGNRKMFGPLMDVDHLPHTLQPGMAFTKGAAETGGVELANELLKLIELHDASNIAAVIVEPMSGSAGVIVPPKGYLQRLREICDANDILLIFDEVITAFGRMGKATGAEYFGVTPDIMNVAKQVTNGAVPMGAVIASSEIYDTFMNQNLPEYAVEFGHGYTYSAHPVACAAGIAALDLLQKENLIQQSAELAPHFEKALHGLKGTKNVIDIRNCGLAGAIQIAARDGDAIVRPFEASMKLWKEGFYVRFGGDTLQFGPTFNAKPEDLDRLFDAVGEALNGVA
Consider B1, for which the “product detected by GC-MS in large-scale reaction” value in test [1] is “a peak corresponding to the mass of the C11 diacid was also found in large concentrations”. In test [2] (UV absorbance at 340 nm, 28° C., pH range 7.5-10), this molecule displayed a pH optimum of about 10. The smallest substrate accepted entry in test [2] (coupled dehydrogenase assay) is reported as “C3 (β-alanine)”. Also, the “activity with ω-amino acids including long chain C11 and C12” value in test [2] (coupled dehydrogenase assay, 340 nm, 28° C., pH 7.5-10) was “shown the desired activity with ω-amino acids, notably including long chain amino acids C11 and C12”.
